Test results as given in PMC10397247.
Values belong to the binder of their own block, whether it stands above or below them.

Tests used:
Experiment in all cases: two-hybrid library CCNG1;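 note: natural log of median RNA to DNA barcode read ratio; higher means stronger binding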
4H2944-bA = target: T1, 4H2944-bA
T1 chain: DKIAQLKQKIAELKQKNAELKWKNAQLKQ

4H342-bA = target: T2, 4H342-bA
T2 chain: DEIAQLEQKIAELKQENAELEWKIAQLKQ

4H2937-bA = target: T3, 4H2937-bA
T3 chain: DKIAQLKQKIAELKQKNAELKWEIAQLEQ

4H491-bA = target: T4, 4H491-bA
T4 chain: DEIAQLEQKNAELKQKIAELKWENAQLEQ

4H48-bA = target: T5, 4H48-bA
T5 chain: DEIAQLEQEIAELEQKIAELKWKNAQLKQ

4H342-bH = target: T6, 4H342-bH
T6 chain: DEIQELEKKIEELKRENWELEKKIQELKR

4H2944-bH = target: T7, 4H2944-bH
T7 chain: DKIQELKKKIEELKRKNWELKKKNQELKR

4H48-bH = target: T8, 4H48-bH
T8 chain: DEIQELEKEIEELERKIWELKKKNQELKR

4H491-bH = target: T9, 4H491-bH
T9 chain: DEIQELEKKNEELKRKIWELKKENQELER

4H2937-bH = target: T10, 4H2937-bH
T10 chain: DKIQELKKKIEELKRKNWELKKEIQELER

4H492-bA = target: T11, 4H492-bA
T11 chain: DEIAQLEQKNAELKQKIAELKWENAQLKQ

4H2438-bA = target: T12, 4H2438-bA
T12 chain: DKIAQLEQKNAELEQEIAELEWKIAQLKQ

4H348-bA = target: T13, 4H348-bA
T13 chain: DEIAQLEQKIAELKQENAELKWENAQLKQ

4H2503-bA = target: T14, 4H2503-bA
T14 chain: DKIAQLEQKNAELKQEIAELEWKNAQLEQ

4H2473-bA = target: T15, 4H2473-bA
T15 chain: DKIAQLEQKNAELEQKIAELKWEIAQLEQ

4H2143-bA = target: T16, 4H2143-bA
T16 chain: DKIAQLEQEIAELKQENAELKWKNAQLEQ

4H2717-bA = target: T17, 4H2717-bA
T17 chain: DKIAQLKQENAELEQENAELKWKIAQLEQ

4H3277-bA = target: T18, 4H3277-bA
T18 chain: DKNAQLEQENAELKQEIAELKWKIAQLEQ

4H2134-bA = target: T19, 4H2134-bA
T19 chain: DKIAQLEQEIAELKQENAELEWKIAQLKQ

4H2839-bA = target: T20, 4H2839-bA
T20 chain: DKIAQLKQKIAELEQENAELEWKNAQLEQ

4H3057-bA = target: T21, 4H3057-bA
T21 chain: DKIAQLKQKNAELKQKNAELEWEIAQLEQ

4H319-bA = target: T22, 4H319-bA
T22 chain: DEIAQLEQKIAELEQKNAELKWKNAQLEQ

4H2692-bA = target: T23, 4H2692-bA
T23 chain: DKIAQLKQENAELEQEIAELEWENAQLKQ

4H741-bA = target: T24, 4H741-bA
T24 chain: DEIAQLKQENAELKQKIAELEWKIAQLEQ

O14-bN = target: T25, O14-bN
T25 chain: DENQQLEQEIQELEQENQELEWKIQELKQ

4H40-bA = target: T26, 4H40-bA
T26 chain: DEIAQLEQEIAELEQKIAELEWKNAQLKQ

4H2588-bA = target: T27, 4H2588-bA
T27 chain: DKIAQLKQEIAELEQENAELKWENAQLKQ

4H2915-bA = target: T28, 4H2915-bA
T28 chain: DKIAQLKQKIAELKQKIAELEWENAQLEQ

4H477-bA = target: T29, 4H477-bA
T29 chain: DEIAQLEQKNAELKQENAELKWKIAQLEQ

4H2223-bA = target: T30, 4H2223-bA
T30 chain: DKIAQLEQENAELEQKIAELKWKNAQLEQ

4H2944-bN = target: T31, 4H2944-bN
T31 chain: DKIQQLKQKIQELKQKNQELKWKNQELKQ

4H491-bN = target: T32, 4H491-bN
T32 chain: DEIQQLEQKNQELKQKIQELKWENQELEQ

4H342-bN = target: T33, 4H342-bN
T33 chain: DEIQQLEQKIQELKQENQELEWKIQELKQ

4H48-bN = target: T34, 4H48-bN
T34 chain: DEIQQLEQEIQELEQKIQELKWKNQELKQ

4H2937-bN = target: T35, 4H2937-bN
T35 chain: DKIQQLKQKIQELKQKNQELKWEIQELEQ

4H780-bH = target: T36, 4H780-bH
T36 chain: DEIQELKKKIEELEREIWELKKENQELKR

4H2586-bH = target: T37, 4H2586-bH
T37 chain: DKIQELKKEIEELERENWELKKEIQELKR

4H953-bH = target: T38, 4H953-bH
T38 chain: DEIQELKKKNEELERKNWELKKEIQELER

4H575-bH = target: T39, 4H575-bH
T39 chain: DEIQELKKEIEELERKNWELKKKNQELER

4H3961-bA = target: T40, 4H3961-bA
T40 chain: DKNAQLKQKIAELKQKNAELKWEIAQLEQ

4H2702-bH = target: T41, 4H2702-bH
T41 chain: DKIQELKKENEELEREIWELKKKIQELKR

4H3427-bH = target: T42, 4H3427-bH
T42 chain: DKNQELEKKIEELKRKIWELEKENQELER

4H457-bH = target: T43, 4H457-bH
T43 chain: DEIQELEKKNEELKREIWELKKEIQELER

4H3926-bH = target: T44, 4H3926-bH
T44 chain: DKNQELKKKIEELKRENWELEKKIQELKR

4H3010-bH = target: T45, 4H3010-bH
T45 chain: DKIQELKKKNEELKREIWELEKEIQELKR

4H754-bH = target: T46, 4H754-bH
T46 chain: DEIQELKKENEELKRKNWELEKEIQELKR

4H797-bH = target: T47, 4H797-bH
T47 chain: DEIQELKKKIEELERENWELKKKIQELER

4H918-bH = target: T48, 4H918-bH
T48 chain: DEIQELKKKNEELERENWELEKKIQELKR

4H855-bH = target: T49, 4H855-bH
T49 chain: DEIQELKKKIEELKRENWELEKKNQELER

4H3112-bH = target: T50, 4H3112-bH
T50 chain: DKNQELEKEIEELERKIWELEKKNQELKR

4H346-bH = target: T51, 4H346-bH
T51 chain: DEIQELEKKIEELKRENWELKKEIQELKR

4H4073-bH = target: T52, 4H4073-bH
T52 chain: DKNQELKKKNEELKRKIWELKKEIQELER

4H2627-bH = target: T53, 4H2627-bH
T53 chain: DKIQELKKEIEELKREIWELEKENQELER

4H118-bH = target: T54, 4H118-bH
T54 chain: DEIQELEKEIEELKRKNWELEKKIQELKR

4H968-bH = target: T55, 4H968-bH
T55 chain: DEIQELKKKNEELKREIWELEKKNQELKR

4H170-bH = target: T56, 4H170-bH
T56 chain: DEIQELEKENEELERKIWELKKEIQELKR

4H2673-bH = target: T57, 4H2673-bH
T57 chain: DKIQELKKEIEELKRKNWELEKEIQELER

4H683-bH = target: T58, 4H683-bH
T58 chain: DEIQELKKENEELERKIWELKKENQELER

4H883-bN = target: T59, 4H883-bN
T59 chain: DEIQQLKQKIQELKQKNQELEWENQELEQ

4H1831-bH = target: T60, 4H1831-bH
T60 chain: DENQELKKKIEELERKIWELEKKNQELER

Binder: DKIAQLKQKIAELKQKNAELKWEIAQLEQ [4H2937-bA]
interaction score (4H2944-bA): -0.548 | interaction score (4H342-bA): 1.61 | interaction score (4H2937-bA): -0.419 | interaction score (4H491-bA): -0.0219 | interaction score (4H48-bA): 0.573

Binder: DKIAQLEQEIAELKQENAELEWKIAQLKQ [4H2134-bA]
interaction score (4H492-bA): 0.114 | interaction score (4H2438-bA): 0.819 | interaction score (4H348-bA): -1.14 | interaction score (4H2503-bA): 0.834 | interaction score (4H2473-bA): 0.432 | interaction score (4H2143-bA): 1.32 | interaction score (4H2717-bA): -0.277 | interaction score (4H3277-bA): 0.0479 | interaction score (4H2134-bA): 1.43 | interaction score (4H2839-bA): 0.969 | interaction score (4H3057-bA): 2.33 | interaction score (4H319-bA): -0.399 | interaction score (4H2692-bA): -0.139 | interaction score (4H741-bA): -1.46 | interaction score (O14-bN): -1.45 | interaction score (4H40-bA): 0.811 | interaction score (4H2588-bA): 0.531 | interaction score (4H2915-bA): 1.66 | interaction score (4H477-bA): 0.935 | interaction score (4H2223-bA): -0.522

Binder: DEIQELEKEIEELKRKNWELEKKIQELKR [4H118-bH]
interaction score (4H780-bH): 0.443 | interaction score (4H2586-bH): 0.817 | interaction score (4H953-bH): 0.224 | interaction score (4H575-bH): -0.101 | interaction score (4H3961-bA): 1.46 | interaction score (4H2702-bH): 0.513 | interaction score (4H3427-bH): 1.04 | interaction score (4H457-bH): 0.505 | interaction score (4H3926-bH): 1.57 | interaction score (4H3010-bH): 1.94 | interaction score (4H754-bH): 0.181 | interaction score (4H797-bH): -0.304 | interaction score (4H918-bH): 0.604 | interaction score (4H855-bH): 0.119 | interaction score (4H3112-bH): 0.102 | interaction score (4H346-bH): 0.654 | interaction score (4H4073-bH): 0.239 | interaction score (4H2627-bH): 1.09 | interaction score (4H118-bH): 1.75 | interaction score (4H968-bH): 1.49 | interaction score (4H170-bH): 1.57 | interaction score (4H2673-bH): 1.9 | interaction score (4H683-bH): -0.584 | interaction score (4H883-bN): 1.72 | interaction score (4H1831-bH): -0.127

Next, values leading:

interaction score (4H342-bH): 1.21 | interaction score (4H2944-bH): -0.833 | interaction score (4H48-bH): 0.185 | interaction score (4H491-bH): 0.828 | interaction score (4H2937-bH): 0.307
Binder: DKIQELKKKIEELKRKNWELKKEIQELER [4H2937-bH]

interaction score (4H2944-bN): -1.12 | interaction score (4H491-bN): -1.11 | interaction score (4H342-bN): 1.46 | interaction score (4H48-bN): -0.313 | interaction score (4H2937-bN): -0.616
Binder: DKIQQLKQKIQELKQKNQELKWEIQELEQ [4H2937-bN]
